According to patent US12068729B2, “Anti-factor XII/XIIa antibodies and uses thereof” (Regeneron Pharmaceuticals, Inc., priority 2018, dated 2024):

B1: mAb26036: fully human anti-FXII/FXIIa monoclonal antibody, HCVR/LCVR SEQ ID NOs: 2/10 (antibody, V domains shown)
VH: QVQLVQSGAEVKKPGASVTVSCKASGYTFTSYYLHWVRQAPGQGLEWMGIINPSGGSTSYAQKFQGRVTMTRDTSTSTVYMELSSLRSEDTAVYYCARGVTTVTTYYHYYNMDVWGQGTTVTVSS
VL: DIQMTQSPSSLSASVGDRVTITCRASQGISNYLAWFQQKPGKAPKSLIYAASSLQSGVPSKFSGSGSGTDFTLTISSLQPEDFATYYCQKYNTYPLTFGGGTKVEIK
B2: mAb26048: fully human anti-FXII/FXIIa monoclonal antibody, HCVR/LCVR SEQ ID NOs: 18/26 (antibody, V domains shown)
VH: EVQLVESGGGLVQPRGSLRLSCVASGFTFSDYGMSWVRQAPGKGLEWVSVIGGAGHGTYYADSVKGRFTISRDNSRNTLYLQMNSLRDEDTAVYYCAKKYYWNYVGGMDVWGRGTTVTVSS
VL: DIQMTQSPSSVSASVGDRVTITCRASQDINNWLAWYQQKPGKAPKLLISTASSLQSGVPSRFSGSGSGTDFTLTISSLQPEDFATYYCQQANSLPFTFGPGTKVDIK
B3: mAb26049: fully human anti-FXII/FXIIa monoclonal antibody, HCVR/LCVR SEQ ID NOs: 34/42 (antibody, V domains shown)
VH: EVQLVESGGDLVQPGGSLRLSCAASGFTFNTYAMHWVRQAPGKGLEYISAIDTKGGSTYYADSVKGRFTISRDNSKNAQYLQMDSLRVEDMAVYYCARGFGLDVWGQGTTVTVSS
VL: DVVMTQSPLSLAVTLGQPASISCRSSQSLGYSDGNTYLNWFQQRPGQSPRRLIYKVSNRDSGVPDRFSGSGSGTDFTLKINRVETVDVGVYYCMQATHWPYTFGQGTKLEIK

How the values were obtained:
human FXII [1] = target: T1, human FXII (Homo sapiens, UniProt P00748); assay: Surface plasmon resonance (Biacore 4000) binding kinetics, hFXII
T1 construct: plasma purified human FXII and FXIIa proteins (Enzyme Research Laboratories); purchased Enzyme Research Laboratories 1212; host or cells: human plasma (said of the same vendor's proteins used as immunogen)
T1 sequence (P00748 20-615): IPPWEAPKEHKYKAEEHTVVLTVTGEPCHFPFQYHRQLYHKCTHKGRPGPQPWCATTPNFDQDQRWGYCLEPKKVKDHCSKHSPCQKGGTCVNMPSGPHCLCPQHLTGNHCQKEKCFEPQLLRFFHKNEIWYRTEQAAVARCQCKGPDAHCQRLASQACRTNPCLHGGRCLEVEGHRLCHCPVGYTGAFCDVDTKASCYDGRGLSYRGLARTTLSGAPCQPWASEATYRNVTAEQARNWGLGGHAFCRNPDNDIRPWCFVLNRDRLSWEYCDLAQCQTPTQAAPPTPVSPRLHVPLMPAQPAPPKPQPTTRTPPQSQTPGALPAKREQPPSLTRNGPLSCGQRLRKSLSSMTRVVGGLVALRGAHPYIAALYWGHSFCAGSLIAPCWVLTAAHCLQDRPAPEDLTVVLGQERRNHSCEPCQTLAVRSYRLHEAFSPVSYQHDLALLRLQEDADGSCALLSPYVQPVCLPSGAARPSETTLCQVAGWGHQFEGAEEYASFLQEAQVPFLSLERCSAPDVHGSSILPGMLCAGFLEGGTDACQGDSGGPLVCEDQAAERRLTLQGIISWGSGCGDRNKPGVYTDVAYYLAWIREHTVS
Description: Equilibrium dissociation constant (KD) for different FXII reagents binding to purified anti-FXII monoclonal antibodies were determined using a real-time surface plasmon resonance based Biacore 4000 biosensor. All binding studies were performed in 10 mM HEPES, 300 mM NaCl, and 0.05% v/v Surfactant Tween-20, pH 7.4 (HBS-P) running buffer at 25° C. and 37° C. The Biacore CM5 sensor chip surface was first derivatized by amine coupling with the mouse anti-human Fc specific monoclonal antibody (GE Healthcare Cat #BR100839) to capture anti-FXII monoclonal antibodies. Binding studies were performed on human FXII and FXIIa (Enzyme Research Laboratories, Cat #1212 and 1212a, respectively). Different concentrations of hFXII and hFXIIa (50 nM-3.125 nM; 2-fold serial dilution) were first prepared in HBS-P running buffer and were injected over anti-human Fc captured anti-FXII monoclonal antibody surface for 3 minutes at a flow rate of 30 uL/minute, while the dissociation of monoclonal antibody bound FXII reagent was monitored for 5 minutes in HBS-P running buffer. The association rate (ka) and dissociation rate (kd) were determined by fitting the real-time binding sensorgrams to a 1:1 binding model with mass transport limitation using Scrubber 2.0c curve-fitting software. Binding dissociation equilibrium constant (KD) and dissociative half-life (t½) were calculated from the kinetic rates as: […]

[2] = tested on: Intrinsic and Common pathways of the coagulation cascade; assay: Activated Partial Thromboplastin Time (aPTT) in pooled normal human plasma; format: biochemical; conditions: dose response curves, pooled normal human plasma
From the text: (§1) This Example describes the inhibitory activity of selected antibodies, as determined by four functional plasma assays: 1) Activated Partial Thromboplastin Time (aPTT), 2) Prothrombin Time (PT), 3) Thrombin Generation Assay (TGA) triggered by ellagic acid and 4) TGA triggered by Tissue Factor. The aPTT test evaluates all clotting factors of the Intrinsic and Common pathways of the coagulation cascade by measuring time for a clot to form after the addition of calcium and ellagic acid, whereas the PT test evaluates all clotting factors of the Extrinsic and Common pathways of the coagulation cascade after the addition of calcium and Tissue Factor. The TGA triggered by ellagic acid measures the rate and amount of thrombin generated via the Intrinsic and Common pathways whereas TGA triggered by Tissue Factor measures the rate and amount of thrombin generated via the Extrinsic and Common pathways.
The aPTT was determined on Diagnostica Stago STart4 Hemostasis Analyzer in the following manner: A total of 50 ul of pooled normal human plasma was added to a cuvette at 37° C. After 1 min, 5 ul of a 2× serially diluted test article (antibody or small molecule inhibitor) in PBS was added to the cuvette and allowed to incubate for 5 min. Then 50 ul of APPT-XL Ellagic Acid (Thermo Scientific) was added and allowed to incubate for 300 seconds before 50 ul of 20 mM calcium chloride (Thermo Scientific) was added to start the reaction. The measured clot time for the test article concentration was normalized to baseline (no drug) plasma clot time and plotted against log molar concentration of the test article. The results were analyzed using nonlinear regression (4-parameter logistics) with Prism 5 software (GraphPad) to obtain doubling time concentration.

[3] = tested on: thrombin generated via the Intrinsic and Common pathways; assay: Thrombin Generation Assay (TGA) triggered by ellagic acid; format: biochemical, human; conditions: Intrinsic Pathway Activation with Ellagic Acid
From the text: as §1
The thrombin generation profile was determined in a Thermo Scientific Hemker Thrombinoscope in the following manner: A total of 55 ul of pooled normal human plasma was added to a well of a microplate at 37° C. Then 5 ul of a 2× serially diluted test article (antibody or small molecule inhibitor) in PBS was added to the well of the microplate and allowed to incubate for 30 min. 15 ul of APPT-XL Ellagic Acid (Thermo Scientific) was diluted in MP reagent then added to the well and allowed to incubate for 45 min. Then 15 ul of Fluo Flu Cal substrate (Diagnostica Stago) was added immediately before a continuous 90 min reading of the microplate. The measured real-time thrombin concentration values were plotted against time to yield a thrombogram profile for each concentration of the test article used.

human FXII [4] = target: T1, human FXII; assay: Surface plasmon resonance (Biacore 4000) binding kinetics, hFXII; remark: listed apart in the source

Row | Molecule | Kd (human FXII [1]; 25° C.) [nM] | ka (human FXII [1]; 25° C.) [M⁻¹ s⁻¹] | kd (human FXII [1]; 25° C.) [s⁻¹] | t½ (human FXII [1]; 25° C.) [min] | Kd (human FXII [1]; 37° C.) [nM] | ka (human FXII [1]; 37° C.) [M⁻¹ s⁻¹] | kd (human FXII [1]; 37° C.) [s⁻¹] | t½ (human FXII [1]; 37° C.) [min] | effect on plasma aPTT (in words) [2] | Concentration required for ↑ lag time by 2× [3] [nM] | Concentration required for ↓ endogenous thrombin potential by ½ [3] [nM] | Concentration required for ↓ thrombin peak by ½ [3] [nM] | 100 nM Ag Bound (RU) (human FXII [4]; 25° C.) | 100 nM Ag Bound (RU) (human FXII [4]; 37° C.)
1 | B1 | 3.12 | 76300 | 0.000238 | 48.5 | 4.62 | 121000 | 0.00056 | 20.6 | prolonged the aPTT | 175 | 250 | 250 | 146.2 | 272.3
2 | B2 | 0.879 | 361000 | 0.000317 | 36.5 | 2.53 | 276000 | 0.000698 | 17 | prolonged the aPTT | 150 | 250 | 250 | 327.5 | 400.6
3 | B3 | 2.74 | 90100 | 0.000247 | 46.7 | 8.78 | 87000 | 0.000764 | 15 | prolonged the aPTT | 200 | 250 | 250 | 134.6 | 178.5
